Target: SARS-CoV-2 recombinant spike HexaPro protein (SARS-CoV-2) (UniProt P0DTC2)
Assay: SPR
Conditions: Fc fusion

FcACE2 dimer construct (Fc-linker-ACE2) was tested, and the Kd was 0.43 nM.
